Laboratory results: the supplement of paper PMC9112550, “Optimization of the antimicrobial peptide Bac7 by deep mutational scanning” (BMC Biology, 2022)

system: Escherichia coli TOP10; assay: shrunken log2 fold change of peptide-encoding DNA abundance (4.5 h post-induction vs induction); higher = less antimicrobial activity (less host growth inhibition); details: time post-induction: 4.5 h; library: site-saturation at positions 5, 18, 19, 20
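Also: peptides expressed intracellularly from a pBAD plasmid library in pooled LB shake-flask culture, induced with 0.3% L-arabinose, DNA abundance read by NGS, three biological replicates, DESeq2 with apeglm shrinkage.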

| Sequence | shrunken log2 fold change |
| --- | --- |
| RRIRHRPPRLPRPRPRPLSTPRP | -0.0859 |
| RRIRHRPPRLPRPRPRPLTAPRP | -0.0931 |
| RRIRHRPPRLPRPRPRPLVHPRP | -0.238 |
| RRIRHRPPRLPRPRPRPLWGPRP | -0.107 |
| RRIRHRPPRLPRPRPRPLWMPRP | -0.138 |
| RRIRHRPPRLPRPRPRPMCFPRP | -0.574 |
| RRIRHRPPRLPRPRPRPMDFPRP | 3.65 |
| RRIRHRPPRLPRPRPRPMDLPRP | 0.00707 |
| RRIRHRPPRLPRPRPRPMFAPRP | -0.245 |
| RRIRHRPPRLPRPRPRPMFCPRP | 0.0621 |
| RRIRHRPPRLPRPRPRPMFGPRP | -0.000925 |
| RRIRHRPPRLPRPRPRPMGGPRP | 0.0348 |
| RRIRHRPPRLPRPRPRPMIKPRP | -0.0726 |
| RRIRHRPPRLPRPRPRPMKEPRP | 0.0572 |
| RRIRHRPPRLPRPRPRPMLDPRP | 0.0917 |
| RRIRHRPPRLPRPRPRPMLGPRP | -0.00277 |
| RRIRHRPPRLPRPRPRPMLRPRP | -0.0571 |
| RRIRHRPPRLPRPRPRPMMPPRP | -0.365 |
| RRIRHRPPRLPRPRPRPMMWPRP | -0.0542 |
| RRIRHRPPRLPRPRPRPMNYPRP | -0.316 |
| RRIRHRPPRLPRPRPRPMPTPRP | 0.0549 |
| RRIRHRPPRLPRPRPRPMRQPRP | 0.143 |
| RRIRHRPPRLPRPRPRPMSNPRP | 0.00049 |
| RRIRHRPPRLPRPRPRPMTGPRP | -0.218 |
| RRIRHRPPRLPRPRPRPMTIPRP | -0.081 |

| Sequence | shrunken log2 fold change |
| --- | --- |
| RRIRHRPPRLPRPRPRPMVLPRP | -0.0459 |
| RRIRHRPPRLPRPRPRPMWHPRP | -0.152 |
| RRIRHRPPRLPRPRPRPNAYPRP | -0.219 |
| RRIRHRPPRLPRPRPRPNCFPRP | 0.0486 |
| RRIRHRPPRLPRPRPRPNCSPRP | 0.0841 |
| RRIRHRPPRLPRPRPRPNCWPRP | 0.612 |
| RRIRHRPPRLPRPRPRPNDHPRP | -0.499 |
| RRIRHRPPRLPRPRPRPNDQPRP | -0.169 |
| RRIRHRPPRLPRPRPRPNEEPRP | -0.00146 |
| RRIRHRPPRLPRPRPRPNFEPRP | 0.00825 |
| RRIRHRPPRLPRPRPRPNFGPRP | 0.00709 |
| RRIRHRPPRLPRPRPRPNHEPRP | -0.493 |
| RRIRHRPPRLPRPRPRPNHKPRP | -0.973 |
| RRIRHRPPRLPRPRPRPNHPPRP | -0.254 |
| RRIRHRPPRLPRPRPRPNKRPRP | -0.198 |
| RRIRHRPPRLPRPRPRPNKTPRP | -0.0741 |
| RRIRHRPPRLPRPRPRPNKVPRP | -0.238 |
| RRIRHRPPRLPRPRPRPNLAPRP | 0.0843 |
| RRIRHRPPRLPRPRPRPNLNPRP | -0.786 |
| RRIRHRPPRLPRPRPRPNMPPRP | 0.0144 |
| RRIRHRPPRLPRPRPRPNRMPRP | 0.0166 |
| RRIRHRPPRLPRPRPRPNRRPRP | -0.00884 |
| RRIRHRPPRLPRPRPRPNRSPRP | -0.413 |
| RRIRHRPPRLPRPRPRPNSMPRP | -0.401 |
| RRIRHRPPRLPRPRPRPNSRPRP | -0.0698 |

| Sequence | shrunken log2 fold change |
| --- | --- |
| RRIRHRPPRLPRPRPRPNTHPRP | -0.856 |
| RRIRHRPPRLPRPRPRPNVFPRP | -0.116 |
| RRIRHRPPRLPRPRPRPNVMPRP | 0.0213 |
| RRIRHRPPRLPRPRPRPNWCPRP | -0.00989 |
| RRIRHRPPRLPRPRPRPNWGPRP | 0.0702 |
| RRIRHRPPRLPRPRPRPNWPPRP | 0.234 |
| RRIRHRPPRLPRPRPRPNWRPRP | 0.0926 |
| RRIRHRPPRLPRPRPRPNYSPRP | -0.915 |
| RRIRHRPPRLPRPRPRPNYYPRP | -0.639 |
| RRIRHRPPRLPRPRPRPPCRPRP | -0.0923 |
| RRIRHRPPRLPRPRPRPPCTPRP | 0.0262 |
| RRIRHRPPRLPRPRPRPPDIPRP | -0.0817 |
| RRIRHRPPRLPRPRPRPPDRPRP | 0.385 |
| RRIRHRPPRLPRPRPRPPDSPRP | 0.139 |
| RRIRHRPPRLPRPRPRPPFCPRP | 0.00537 |
| RRIRHRPPRLPRPRPRPPFPPRP | 0.0224 |
| RRIRHRPPRLPRPRPRPPGEPRP | 0.418 |
| RRIRHRPPRLPRPRPRPPGLPRP | 0.0255 |
| RRIRHRPPRLPRPRPRPPGRPRP | 0.593 |
| RRIRHRPPRLPRPRPRPPGVPRP | 0.0725 |
| RRIRHRPPRLPRPRPRPPHKPRP | 0.0336 |
| RRIRHRPPRLPRPRPRPPICPRP | -0.0463 |
| RRIRHRPPRLPRPRPRPPIQPRP | 0.0855 |
| RRIRHRPPRLPRPRPRPPLRPRP | 0.287 |
| RRIRHRPPRLPRPRPRPPNDPRP | -0.471 |
